“And” between values parts separate entries of the source, which are not always exact repeats. Equal entries are not always repeated.
What was measured:
[1] = molecular target: cynomolgus monkey CCR8 (comprising threonine at position four) (cynomolgus monkey); experiment: KinExA, 293T cells expressing cynomolgus CCR8
[2] = molecular target: cynomolgus monkey CCR8 (comprising threonine at position four) (cynomolgus monkey); experiment: flow cytometry, primary cynomolgus Tregs (PBMC, CD4+CD25+CD127- gate)

cynomolgus monkey CCR8 (comprising threonine at position four) (cynomolgus monkey), sequence (O97665 other isoform, or with tags, fused parts or gaps): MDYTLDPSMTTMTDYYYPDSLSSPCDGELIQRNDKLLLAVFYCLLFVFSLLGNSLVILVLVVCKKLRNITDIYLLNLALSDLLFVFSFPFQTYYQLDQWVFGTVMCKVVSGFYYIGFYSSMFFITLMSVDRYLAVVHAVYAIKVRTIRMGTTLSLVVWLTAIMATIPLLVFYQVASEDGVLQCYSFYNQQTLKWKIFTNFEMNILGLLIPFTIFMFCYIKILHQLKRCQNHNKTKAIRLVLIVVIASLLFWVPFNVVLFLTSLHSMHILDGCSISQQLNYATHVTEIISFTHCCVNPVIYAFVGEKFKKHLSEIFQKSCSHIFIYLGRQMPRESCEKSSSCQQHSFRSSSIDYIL

- Kd [1]: > 50 nM
- CCR8+CD127-CD25+CD4, % positive [2]: 8.5% and 17.9%
B1: Antibody 2 IgG2 (antibody, V domains shown)
VH: QVQLVESGGGVVQPGRSLRLSCAASGFTFSNYGMHWVRQAPGKGLEWVAVISYDGSNKFYADSVKGRFTISRDNSKKTLYLQMSSLRVEDTAVYYCARAGGIGRFDYWGQGTLVTVSS
VL: DFVMTQTPLSLSVTPGQPASISCKYSQSLLHSDGKTYLFWYLQKPGQPPHLLIYEVSNRFSGVPDRFSGSGSGTDFTLKISRVEAEDVGLYYCMQTLKLPLTFGGGTKVEINR

— patent US20250171549A1
